Common to all, as to assay: HPLC product assay, Lineweaver-Burk
Holding throughout (type): biochemical, Cynara cardunculus

Substrate in data set [1]: CC(C)(COP(=O)(O)OP(=O)(O)OC[C@H]1O[C@@H](n2cnc3c(N)ncnc32)[C@H](O)[C@@H]1OP(=O)(O)O)[C@@H](O)C(=O)NCCC(=O)NCCSC(=O)/C=C/c1ccc(O)c(O)c1
The note with it: 20 mM quinate as acceptor, sodium phosphate pH 7.5, 1 mM DTT, 30 C. From the text:
(§1) HPLC product assay, Lineweaver-Burk on HCT (globe artichoke hydroxycinnamoyltransferase; CcHCT)

Substrate in data set [2]: O=C(O)[C@]1(O)C[C@@H](O)[C@@H](O)[C@H](O)C1
The note with it: 300 μM p-coumaroyl-CoA as donor, sodium phosphate pH 7.5, 1 mM DTT, 30 C.
Excerpt: as §1

Substrate in data set [3]: CC(C)(COP(=O)(O)OP(=O)(O)OC[C@H]1O[C@@H](n2cnc3c(N)ncnc32)[C@H](O)[C@@H]1OP(=O)(O)O)[C@@H](O)C(=O)NCCC(=O)NCCSC(=O)/C=C/c1ccc(O)cc1
Conditions: 20 mM quinate as acceptor, sodium phosphate pH 7.5, 1 mM DTT, 30 C, recombinant bacterial extract (discussion says purified, no purification described).
Excerpt: as §1

B1: HCT (globe artichoke hydroxycinnamoyltransferase; CcHCT) (Cynara cardunculus) (protein)
chain: MKIEVRESTMVRPAEETPRINLWNSNVDLVVPNFHTPSVYFYRPNGAANFFDPKVMKDALSRALVPFYPMGGRLKRDEDGRIEIDCQGQGVLFVEAESDGVIDDFGDFAPTLELRKLIPAVDYTLGIESYSLLVLQVTYFKCGGVSLGVGMQHHAADGASGLHFINTWSDLARGLDLAVPPFIDRTLLRSRDPPQPAFDHIEYQPAPPMKTAPTPTPTDDESVPETTVSIFKLTRDQVNALKGKSKEDGNTVNYSSYEMLSGHVWRCVCKARGLPDDQDTKLYIATDGRARLRPSLPRGYFGNVIFTTTPIAVAGDLQSKPTWYAASKIHDALARMDDDYLKSALDYLELQPDLKALVRGAHTFKCPNLGITSWARLPIHDADFGWGRPIFMGPGGIAYEGLSFVLPSPINDGSLSIVISLQAEHMKLFSKFLYDI
notes: full-length ORF (1308 bp, 436 residues printed, ~50 kDa), pET3a NdeI/BamHI, no tag mentioned, E. coli BL21(DE3) pLysE at 28 C
As for B1, in data set [1], the Km was 61.75 ± 0.004 µM, the Vmax was 0.0402 µmol/min/mg and the Vmax/Km stood at 600 µL/min/mg. Also, in data set [2], the Michaelis constant (Km) is 9200 ± 5600 µM, the Vmax was 0.126 µmol/min/mg and the Vmax/Km turned out to be 12 µL/min/mg. In data set [3], the Michaelis-Menten constant (Km) turned out to be 53.0 ± 13.0 µM, the maximal velocity (Vmax) came out at 0.132 µmol/min/mg and the Vmax/Km was 2460 µL/min/mg.

What is called Km is the substrate concentration at which the rate is half of its maximum. A word on the Vmax: it is the top rate of the reaction or transport when substrate is in excess.

Values taken from paper PMC1847684, “Isolation and functional characterization of a cDNA coding a hydroxycinnamoyltransferase involved in phenylpropanoid biosynthesis in Cynara cardunculus L” (BMC Plant Biology, 2007).
